Experimental data from US20230364254A1, “METHODS FOR TREATING CANCERS WITH ANTIBODY DRUG CONJUGATES (ADC) THAT BIND TO 191P4D12 PROTEINS” (priority 2020, published 2023).

System: patients with locally advanced or metastatic urothelial cancer
Assay: Same phase 2 study: safety (adverse events, NCI CTCAE v4.03)
Assay type: in vivo, human
Settings: Cohort 2 (N = 89)
From the text: Safety assessments will be based on the information collected through the safety surveillance process and will include the data from recorded adverse events (AEs) including SAEs, recording of concomitant medication, physical examination findings, cardiac monitoring, and laboratory tests.
The assessment of safety during the course of this study will consist of the surveillance and recording of AEs including SAEs, recording of concomitant medication, and measurements of protocol-specified physical examination findings, cardiac monitoring, and laboratory tests.
AE severity should be graded using the National Cancer Institute's Common Terminology Criteria for Adverse Events (NCI CTCAE), Version 4.03. These criteria are provided in the study manual.
An overview of AEs will provide a tabulation of the incidence of all AEs, treatment-emergent AEs, treatment-related AEs, Grade 3 and higher AEs. SAEs, treatment-related SAEs, deaths, and AEs leading to study treatment discontinuation. Adverse events will be defined as treatment emergent if they are newly occurring or worsened following study treatment.
AEs will be classified by system organ class and preferred tem using the Medical Dictionary for Regulatory Activities (MedDRA) and graded using NCI CTCAE, Version 4.03.
The incidence of AEs will be summarized by system organ class, preferred term, severity and relationship to study drug. In the event of multiple occurrences of the same AE in one patient, the AE will be counted once as the occurrence for the maximum grade. AEs leading to premature discontinuation of study drug will be summarized and listed in the same manner.

For “enfortumab vedotin: Nectin-4 directed ADC: fully human anti-nectin-4 IgG1 kappa antibody (AGS-22C3) conjugated to MMAE via protease-cleavable maleimidocaproyl valine-citrulline linker”, the “AE of special interest, All Grade: Ocular Events, Blurred Vision” value was 9 (10.1) N (%), the “AE of special interest, All Grade: Ocular Events, Corneal Disorders” value was 5 (5.6) N (%) and the “AE of special interest, All Grade: Ocular Events, Dry Eye Disorders” value was 27 (30.3) N (%). The “AE of special interest, All Grade: Peripheral Neuropathy” value was 51 (58.4) N (%), the “AE of special interest, All Grade: Rash” value was 59 (66.3) N (%) and the “AE of special interest, ≥Gr 3: Hyperglycemia” value was 8 (9) N (%). For the same substance, the “AE of special interest, ≥Gr 3: IRR” value was 1 (1.1) N (%), the “AE of special interest, ≥Gr 3: Peripheral Neuropathy” value was 7 (7.9) N (%) and the “AE of special interest, ≥Gr 3: Rash” value was 15 (16.9) N (%). The “Any TEAEs” value was 89 (100.0) n (%), the “Any TEAEs leading to death” value was 8 (9.0) n (%) and the “Any TEAEs leading to treatment discontinuation” value was 18 (20.2) n (%). For the same substance, the “Any grade 3-5 TEAEs” value was 62 (69.7) n (%), the “Any serious TEAEs” value was 35 (39.3) n (%) and the “SAEs (All): Acute kidney injury” value was 9 (10.1) n (%). For the same substance, the “SAEs (All): Diarrhoea” value was 3 (3.4) n (%), the “SAEs (All): Febrile neutropenia” value was 1 (1.1) n (%) and the “SAEs (All): Nausea” value was 2 (2.2) n (%). The “SAEs (All): Overall” value was 35 (39.3) n (%), the “SAEs (All): Pneumonia” value was 3 (3.4) n (%) and the “SAEs (All): Sepsis” value was 4 (4.5) n (%). For the same substance, the “SAEs (All): Urinary tract infection” value was 3 (3.4) n (%), the “SAEs (Related): Acute kidney injury” value was 3 (3.4) n (%) and the “SAEs (Related): Diarrhoea” value was 2 (2.2) n (%). The “SAEs (Related): Febrile neutropenia” value was 1 (1.1) n (%), the “SAEs (Related): Nausea” value was 1 (1.1) n (%) and the “SAEs (Related): Overall” value was 15 (16.9) n (%). For the same substance, the “SAEs (Related): Pneumonia” value was 1 (1.1) n (%), the “Treatment-related AE leading to discontinuation: Acute kidney injury” value was 2 (2.2) n (%) and the “Treatment-related AE leading to discontinuation: Dermatitis bullous” value was 1 (1.1) n (%). The “Treatment-related AE leading to discontinuation: Lipase increased” value was 2 (2.2) n (%), the “Treatment-related AE leading to discontinuation: Metabolic acidosis” value was 1 (1.1) n (%) and the “Treatment-related AE leading to discontinuation: Multiple organ dysfunction syndrome” value was 1 (1.1) n (%). The “Treatment-related AE leading to discontinuation: Muscular weakness” value was 1 (1.1) n (%), the “Treatment-related AE leading to discontinuation: Overall” value was 14 (15.7) n (%) and the “Treatment-related AE leading to discontinuation: Peripheral motor neuropathy” value was 1 (1.1) n (%). For the same substance, the “Treatment-related AE leading to discontinuation: Peripheral sensory neuropathy” value was 4 (4.5) n (%), the “Treatment-related AE leading to discontinuation: Pneumonitis” value was 1 (1.1) n (%) and the “Treatment-related TEAEs” value was 86 (96.6) n (%). For the same substance, the “Treatment-related TEAEs (all grades): Alopecia” value was 45 (50.6) n (%), the “Treatment-related TEAEs (all grades): Anaemia” value was 22 (24.7) n (%) and the “Treatment-related TEAEs (all grades): Aspartate aminotransferase increased” value was 7 (7.9) n (%). For the same substance, the “Treatment-related TEAEs (all grades): Decreased appetite” value was 29 (32.6) n (%), the “Treatment-related TEAEs (all grades): Diarrhoea” value was 20 (22.5) n (%) and the “Treatment-related TEAEs (all grades): Dry eye” value was 11 (12.4) n (%). For the same substance, the “Treatment-related TEAEs (all grades): Dry skin” value was 16 (18.0) n (%), the “Treatment-related TEAEs (all grades): Dysgeusia” value was 24 (27.0) n (%) and the “Treatment-related TEAEs (all grades): Fatigue” value was 30 (33.7) n (%). For the same substance, the “Treatment-related TEAEs (all grades): Lacrimation increased” value was 9 (10.1) n (%), the “Treatment-related TEAEs (all grades): Nausea” value was 20 (22.5) n (%) and the “Treatment-related TEAEs (all grades): Neutropenia” value was 11 (12.4) n (%). For the same substance, the “Treatment-related TEAEs (all grades): Oedema peripheral” value was 10 (11.2) n (%), the “Treatment-related TEAEs (all grades): Overall” value was 86 (96.6) n (%) and the “Treatment-related TEAEs (all grades): Peripheral sensory neuropathy” value was 42 (47.2) n (%). The “Treatment-related TEAEs (all grades): Pruritus” value was 27 (30.3) n (%), the “Treatment-related TEAEs (all grades): Rash maculo-papular” value was 27 (30.3) n (%) and the “Treatment-related TEAEs (all grades): Vomiting” value was 7 (7.9) n (%). For the same substance, the “Treatment-related TEAEs (all grades): Weight decreased” value was 23 (25.8) n (%), the “Treatment-related TEAEs leading to death” value was 3 (3.4) n (%) and the “Treatment-related TEAEs leading to treatment discontinuation” value was 14 (15.7) n (%). For the same substance, the “Treatment-related TEAEs ≥Grade 3: Acute kidney injury” value was 4 (4.5) n (%), the “Treatment-related TEAEs ≥Grade 3: Amylase increased” value was 3 (3.4) n (%) and the “Treatment-related TEAEs ≥Grade 3: Anaemia” value was 5 (5.6) n (%). The “Treatment-related TEAEs ≥Grade 3: Aspartate aminotransferase increased” value was 2 (2.2) n (%), the “Treatment-related TEAEs ≥Grade 3: Decreased appetite” value was 5 (5.6) n (%) and the “Treatment-related TEAEs ≥Grade 3: Diarrhoea” value was 5 (5.6) n (%). For the same substance, the “Treatment-related TEAEs ≥Grade 3: Fatigue” value was 6 (6.7) n (%), the “Treatment-related TEAEs ≥Grade 3: Febrile neutropenia” value was 1 (1.1) n (%) and the “Treatment-related TEAEs ≥Grade 3: Hyperglycaemia” value was 5 (5.6) n (%). For the same substance, the “Treatment-related TEAEs ≥Grade 3: Hyponatraemia” value was 3 (3.4) n (%), the “Treatment-related TEAEs ≥Grade 3: Lipase increased” value was 5 (5.6) n (%) and the “Treatment-related TEAEs ≥Grade 3: Neutropenia” value was 8 (9.0) n (%). For the same substance, the “Treatment-related TEAEs ≥Grade 3: Neutrophil count decreased” value was 3 (3.4) n (%), the “Treatment-related TEAEs ≥Grade 3: Overall” value was 49 (55.1) n (%) and the “Treatment-related TEAEs ≥Grade 3: Peripheral sensory neuropathy” value was 3 (3.4) n (%). The “Treatment-related TEAEs ≥Grade 3: Pruritus” value was 3 (3.4) n (%), the “Treatment-related TEAEs ≥Grade 3: Rash erythematous” value was 2 (2.2) n (%) and the “Treatment-related TEAEs ≥Grade 3: Rash maculo-papular” value was 7 (7.9) n (%). The “Treatment-related grade 3-5 TEAEs” value was 49 (55.1) n (%), the “Treatment-related serious TEAEs” value was 15 (16.9) n (%) and the “TRAEs, Any Grade: Alopecia” value (additional 3 months follow-up) was 45 (51) n (%). For the same substance, the “TRAEs, Any Grade: Anemia” value (additional 3 months follow-up) was 22 (25) n (%), the “TRAEs, Any Grade: Decreased appetite” value (additional 3 months follow-up) was 29 (33) n (%) and the “TRAEs, Any Grade: Diarrhea” value (additional 3 months follow-up) was 20 (22) n (%). For the same substance, the “TRAEs, Any Grade: Dysgeusia” value (additional 3 months follow-up) was 25 (28) n (%), the “TRAEs, Any Grade: Fatigue” value (additional 3 months follow-up) was 30 (34) n (%) and the “TRAEs, Any Grade: Hyperglycemia” value (additional 3 months follow-up) was 8 (9) n (%). The “TRAEs, Any Grade: Lipase increased” value (additional 3 months follow-up) was 7 (8) n (%) and the “TRAEs, Any Grade: Nausea” value (additional 3 months follow-up) was 20 (22) n (%).
